Data taken from the supplement of paper PMC9112550, “Optimization of the antimicrobial peptide Bac7 by deep mutational scanning” (BMC Biology, 2022).

System: Escherichia coli TOP10
Assay: shrunken log2 fold change of peptide-encoding DNA abundance (4.5 h post-induction vs induction); higher = less antimicrobial activity (less host growth inhibition)
Details: time post-induction: 4.5 h; library: site-saturation at positions 5, 18, 19, 20
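Note: peptides expressed intracellularly from a pBAD plasmid library in pooled LB shake-flask culture, induced with 0.3% L-arabinose, DNA abundance read by NGS, three biological replicates, DESeq2 with apeglm shrinkage.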

Row | Sequence | shrunken log2 fold change
1 | RRIRVRPPRLPRPRPRPHEGPRP | -0.0348
2 | RRIRVRPPRLPRPRPRPHEKPRP | 0.0571
3 | RRIRVRPPRLPRPRPRPHGHPRP | -0.0491
4 | RRIRVRPPRLPRPRPRPHGIPRP | 0.00955
5 | RRIRVRPPRLPRPRPRPHIYPRP | -0.519
6 | RRIRVRPPRLPRPRPRPHKMPRP | -0.264
7 | RRIRVRPPRLPRPRPRPHMDPRP | -0.449
8 | RRIRVRPPRLPRPRPRPHMHPRP | -0.517
9 | RRIRVRPPRLPRPRPRPHMIPRP | -0.463
10 | RRIRVRPPRLPRPRPRPHNHPRP | -0.468
11 | RRIRVRPPRLPRPRPRPHNVPRP | -0.859
12 | RRIRVRPPRLPRPRPRPHQPPRP | 0.0593
13 | RRIRVRPPRLPRPRPRPHQWPRP | -0.239
14 | RRIRVRPPRLPRPRPRPHRKPRP | 0.164
15 | RRIRVRPPRLPRPRPRPHRRPRP | -0.328
16 | RRIRVRPPRLPRPRPRPHRVPRP | 0.133
17 | RRIRVRPPRLPRPRPRPHSGPRP | -0.022
18 | RRIRVRPPRLPRPRPRPHSIPRP | -0.155
19 | RRIRVRPPRLPRPRPRPHTRPRP | -0.178
20 | RRIRVRPPRLPRPRPRPHVCPRP | -0.0775
21 | RRIRVRPPRLPRPRPRPHVGPRP | 0.0858
22 | RRIRVRPPRLPRPRPRPHWLPRP | -0.291
23 | RRIRVRPPRLPRPRPRPHYSPRP | -0.424
24 | RRIRVRPPRLPRPRPRPICDPRP | -0.0949
25 | RRIRVRPPRLPRPRPRPICHPRP | -0.224

Row | Sequence | shrunken log2 fold change
26 | RRIRVRPPRLPRPRPRPIDFPRP | -0.0311
27 | RRIRVRPPRLPRPRPRPIEIPRP | -0.00163
28 | RRIRVRPPRLPRPRPRPIGRPRP | -0.0725
29 | RRIRVRPPRLPRPRPRPIGSPRP | -0.0343
30 | RRIRVRPPRLPRPRPRPIHCPRP | 0.0605
31 | RRIRVRPPRLPRPRPRPIIFPRP | -0.286
32 | RRIRVRPPRLPRPRPRPIIMPRP | 0.0741
33 | RRIRVRPPRLPRPRPRPIIPPRP | -0.36
34 | RRIRVRPPRLPRPRPRPILEPRP | 0.13
35 | RRIRVRPPRLPRPRPRPILMPRP | -0.231
36 | RRIRVRPPRLPRPRPRPIPHPRP | -0.307
37 | RRIRVRPPRLPRPRPRPIQGPRP | 0.0292
38 | RRIRVRPPRLPRPRPRPIQHPRP | -0.415
39 | RRIRVRPPRLPRPRPRPIQMPRP | -0.0987
40 | RRIRVRPPRLPRPRPRPIQRPRP | -0.0384
41 | RRIRVRPPRLPRPRPRPIRAPRP | -0.109
42 | RRIRVRPPRLPRPRPRPIRFPRP | -0.0571
43 | RRIRVRPPRLPRPRPRPIRIPRP | -0.0273
44 | RRIRVRPPRLPRPRPRPIRNPRP | -0.0718
45 | RRIRVRPPRLPRPRPRPIRWPRP | -0.0339
46 | RRIRVRPPRLPRPRPRPISQPRP | -0.261
47 | RRIRVRPPRLPRPRPRPISRPRP | 0.107
48 | RRIRVRPPRLPRPRPRPITSPRP | -0.21
49 | RRIRVRPPRLPRPRPRPITVPRP | -1.15
50 | RRIRVRPPRLPRPRPRPITYPRP | -0.911

Row | Sequence | shrunken log2 fold change
51 | RRIRVRPPRLPRPRPRPIVAPRP | -0.00399
52 | RRIRVRPPRLPRPRPRPIVFPRP | 0.0602
53 | RRIRVRPPRLPRPRPRPIVLPRP | -0.176
54 | RRIRVRPPRLPRPRPRPIWCPRP | 0.0502
55 | RRIRVRPPRLPRPRPRPIWKPRP | -0.168
56 | RRIRVRPPRLPRPRPRPIWLPRP | -0.106
57 | RRIRVRPPRLPRPRPRPIWNPRP | -0.624
58 | RRIRVRPPRLPRPRPRPIYPPRP | -0.413
59 | RRIRVRPPRLPRPRPRPIYSPRP | -0.203
60 | RRIRVRPPRLPRPRPRPIYYPRP | -0.455
61 | RRIRVRPPRLPRPRPRPKAVPRP | 0.0112
62 | RRIRVRPPRLPRPRPRPKCVPRP | -0.0921
63 | RRIRVRPPRLPRPRPRPKFTPRP | -0.0442
64 | RRIRVRPPRLPRPRPRPKGAPRP | 0.553
65 | RRIRVRPPRLPRPRPRPKHCPRP | 0.0148
66 | RRIRVRPPRLPRPRPRPKHGPRP | -0.0119
67 | RRIRVRPPRLPRPRPRPKLDPRP | 0.116
68 | RRIRVRPPRLPRPRPRPKMGPRP | 0.0797
69 | RRIRVRPPRLPRPRPRPKMHPRP | -0.198
70 | RRIRVRPPRLPRPRPRPKMTPRP | -0.0628
71 | RRIRVRPPRLPRPRPRPKNDPRP | 0.011
72 | RRIRVRPPRLPRPRPRPKNFPRP | 0.0772
73 | RRIRVRPPRLPRPRPRPKPRPRP | 0.638
74 | RRIRVRPPRLPRPRPRPKQIPRP | -0.0455
75 | RRIRVRPPRLPRPRPRPKRGPRP | 0.054

Row | Sequence | shrunken log2 fold change
76 | RRIRVRPPRLPRPRPRPKTEPRP | 0.00185
77 | RRIRVRPPRLPRPRPRPKTMPRP | 0.196
78 | RRIRVRPPRLPRPRPRPKTWPRP | 0.063
79 | RRIRVRPPRLPRPRPRPKVEPRP | 0.317
80 | RRIRVRPPRLPRPRPRPKVSPRP | -0.0522
81 | RRIRVRPPRLPRPRPRPKWWPRP | 0.0767
82 | RRIRVRPPRLPRPRPRPKYGPRP | -0.141
83 | RRIRVRPPRLPRPRPRPKYSPRP | -0.122
84 | RRIRVRPPRLPRPRPRPLAFPRP | -0.221
85 | RRIRVRPPRLPRPRPRPLAKPRP | -0.252
86 | RRIRVRPPRLPRPRPRPLAYPRP | 0.0656
87 | RRIRVRPPRLPRPRPRPLCCPRP | -0.0983
88 | RRIRVRPPRLPRPRPRPLDRPRP | -0.117
89 | RRIRVRPPRLPRPRPRPLEWPRP | -0.0248
90 | RRIRVRPPRLPRPRPRPLEYPRP | 0.0331
91 | RRIRVRPPRLPRPRPRPLHIPRP | -0.528
92 | RRIRVRPPRLPRPRPRPLHVPRP | -0.311
93 | RRIRVRPPRLPRPRPRPLIHPRP | -0.393
94 | RRIRVRPPRLPRPRPRPLKCPRP | -0.412
95 | RRIRVRPPRLPRPRPRPLMWPRP | 0.157
96 | RRIRVRPPRLPRPRPRPLNCPRP | -0.257
97 | RRIRVRPPRLPRPRPRPLPGPRP | 0.547
98 | RRIRVRPPRLPRPRPRPLPRPRP | 0.642
99 | RRIRVRPPRLPRPRPRPLQEPRP | 0.298
100 | RRIRVRPPRLPRPRPRPLRNPRP | 0.408

Row | Sequence | shrunken log2 fold change
101 | RRIRVRPPRLPRPRPRPLTCPRP | -0.187
102 | RRIRVRPPRLPRPRPRPLYPPRP | -0.586
103 | RRIRVRPPRLPRPRPRPMAEPRP | 2.52
104 | RRIRVRPPRLPRPRPRPMAGPRP | -0.00674
105 | RRIRVRPPRLPRPRPRPMAHPRP | 0.00201
106 | RRIRVRPPRLPRPRPRPMAIPRP | -0.11
107 | RRIRVRPPRLPRPRPRPMCIPRP | -0.047
108 | RRIRVRPPRLPRPRPRPMCPPRP | 0.0857
109 | RRIRVRPPRLPRPRPRPMCVPRP | 0.103
110 | RRIRVRPPRLPRPRPRPMDFPRP | -0.205
111 | RRIRVRPPRLPRPRPRPMEMPRP | -0.0249
112 | RRIRVRPPRLPRPRPRPMFPPRP | 0.086
113 | RRIRVRPPRLPRPRPRPMISPRP | -0.237
114 | RRIRVRPPRLPRPRPRPMKGPRP | -0.01
115 | RRIRVRPPRLPRPRPRPMLIPRP | -0.0178
116 | RRIRVRPPRLPRPRPRPMLMPRP | 0.00342
117 | RRIRVRPPRLPRPRPRPMMCPRP | -0.00174
118 | RRIRVRPPRLPRPRPRPMMSPRP | 0.00438
119 | RRIRVRPPRLPRPRPRPMPDPRP | 0.00211
120 | RRIRVRPPRLPRPRPRPMQAPRP | -0.0023
121 | RRIRVRPPRLPRPRPRPMRIPRP | 0.218
122 | RRIRVRPPRLPRPRPRPMRNPRP | -0.0233
123 | RRIRVRPPRLPRPRPRPMSEPRP | 0.0558
124 | RRIRVRPPRLPRPRPRPMTEPRP | 0.0198
125 | RRIRVRPPRLPRPRPRPMTQPRP | 0.181

Row | Sequence | shrunken log2 fold change
126 | RRIRVRPPRLPRPRPRPMVTPRP | -0.043
127 | RRIRVRPPRLPRPRPRPMWYPRP | -0.62
128 | RRIRVRPPRLPRPRPRPMYFPRP | -0.569
129 | RRIRVRPPRLPRPRPRPMYGPRP | -0.116
130 | RRIRVRPPRLPRPRPRPMYNPRP | -0.315
131 | RRIRVRPPRLPRPRPRPNALPRP | -0.379
132 | RRIRVRPPRLPRPRPRPNAVPRP | -0.223
133 | RRIRVRPPRLPRPRPRPNAYPRP | -0.572
134 | RRIRVRPPRLPRPRPRPNCDPRP | -0.356
135 | RRIRVRPPRLPRPRPRPNGFPRP | -0.0486
136 | RRIRVRPPRLPRPRPRPNIHPRP | -0.556
137 | RRIRVRPPRLPRPRPRPNKYPRP | -0.668
138 | RRIRVRPPRLPRPRPRPNLMPRP | -0.153
139 | RRIRVRPPRLPRPRPRPNLWPRP | -0.0401
140 | RRIRVRPPRLPRPRPRPNMNPRP | -0.745
141 | RRIRVRPPRLPRPRPRPNPNPRP | -0.108
142 | RRIRVRPPRLPRPRPRPNQNPRP | -0.312
143 | RRIRVRPPRLPRPRPRPNQYPRP | -0.864
144 | RRIRVRPPRLPRPRPRPNSLPRP | 0.0679
145 | RRIRVRPPRLPRPRPRPNTAPRP | -0.147
146 | RRIRVRPPRLPRPRPRPPARPRP | 0.76
147 | RRIRVRPPRLPRPRPRPPCEPRP | 0.229
148 | RRIRVRPPRLPRPRPRPPCMPRP | -0.0452
149 | RRIRVRPPRLPRPRPRPPCNPRP | -0.356
150 | RRIRVRPPRLPRPRPRPPDCPRP | -0.0843
